# Measured values from US20230235012A1 (ALPINE IMMUNE SCIENCES, published 2023).
# Residue numbers refer to the chain shown, from its start. In names and notes the source's numbering stands. Several values for one entry are separate records, joined by “and”; a condition that tells them apart may be missing. Equal values may be shown once.
# T1: human ICOS (human, UniProt Q9Y6W8 21-199)
# T1 construct: whole, on cells
# T1 sequence (looked up): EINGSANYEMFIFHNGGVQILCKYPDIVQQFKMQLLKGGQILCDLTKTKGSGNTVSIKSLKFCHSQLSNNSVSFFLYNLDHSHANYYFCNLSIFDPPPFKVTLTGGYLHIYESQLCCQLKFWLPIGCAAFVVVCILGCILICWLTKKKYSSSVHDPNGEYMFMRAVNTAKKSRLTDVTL
# T2: human ICOS, full length, expressed on cells (human, UniProt Q9Y6W8 21-199)
# T2 sequence: T1 sequence (looked up)
# B1: ICOSL IgV with N52H/N57Y/Q100R, Fc fusion (Fc fusion)
# chain: DTQEKEVRAMVGSDVELSCACPEGSRFDLNDVYVYWQTSESKTVVTYHIPQHSSLEYVDSRYRNRALMSPAGMLRGDFSLRLFNVTPQDEQKFHCLVLSRSLGFQEVLSVEVTLHVAANFSVGGGGSGGGGSEPKSSDKTHTCPPCPAPEAEGAPSVFLFPPKPKDTLMISRTPEVTCVVVDVSHEDPEVKFNWYVDGVEVHNAKTKPREEQYNSTYRVVSVLTVLHQDWLNGKEYKCKVSNKALPAPIEKTISKAKGQPREPQVYTLPPSREEMTKNQVSLTCLVKGFYPSDIAVEWESNGQPENNYKTTPPVLDSDGSFFLYSKLTVDKSRWQQGNVFSCSVMHEALHNHYTQKSLSLSPG
# notes: also called ICOSCL IgV with N52H/N57Y/Q100R
# B2: ICOSL ECD Truncation #4 with N52H/N57Y/Q100R/F172S, Fc fusion (Fc fusion)
# chain: DTQEKEVRAMVGSDVELSCACPEGSRFDLNDVYVYWQTSESKTVVTYHIPQHSSLEYVDSRYRNRALMSPAGMLRGDFSLRLFNVTPQDEQKFHCLVLSRSLGFQEVLSVEVTLHVAANFSVPVVSAPHSPSQDELTFTCTSINGYPRPNVYWINKTDNSLLDQALQNDTVSLNMRGLYDVVSVLRIARTPSVNIGCCIENVLLQQNGGGGSGGGGSEPKSSDKTHTCPPCPAPEAEGAPSVFLFPPKPKDTLMISRTPEVTCVVVDVSHEDPEVKFNWYVDGVEVHNAKTKPREEQYNSTYRVVSVLTVLHQDWLNGKEYKCKVSNKALPAPIEKTISKAKGQPREPQVYTLPPSREEMTKNQVSLTCLVKGFYPSDIAVEWESNGQPENNYKTTPPVLDSDGSFFLYSKLTVDKSRWQQGNVFSCSVMHEALHNHYTQKSLSLSPG
# B3: ICOSL ECD with N52H/N57Y/Q100R/F172S, (G4S)2-Fc fusion (Fc fusion)
# chain: DTQEKEVRAMVGSDVELSCACPEGSRFDLNDVYVYWQTSESKTVVTYHIPQHSSLEYVDSRYRNRALMSPAGMLRGDFSLRLFNVTPQDEQKFHCLVLSRSLGFQEVLSVEVTLHVAANFSVPVVSAPHSPSQDELTFTCTSINGYPRPNVYWINKTDNSLLDQALQNDTVSLNMRGLYDVVSVLRIARTPSVNIGCCIENVLLQQNLTVGSQTGNDIGERDKITENPVSTGEKNAATGGGGSGGGGSEPKSSDKTHTCPPCPAPEAEGAPSVFLFPPKPKDTLMISRTPEVTCVVVDVSHEDPEVKFNWYVDGVEVHNAKTKPREEQYNSTYRVVSVLTVLHQDWLNGKEYKCKVSNKALPAPIEKTISKAKGQPREPQVYTLPPSREEMTKNQVSLTCLVKGFYPSDIAVEWESNGQPENNYKTTPPVLDSDGSFFLYSKLTVDKSRWQQGNVFSCSVMHEALHNHYTQKSLSLSPG
# notes: also called ICOSCL ECD with N52H/N57Y/Q100R/F172S
# B4: ICOSL ECD Truncation #7 with N52H/N57Y/Q100R/F172S, Fc fusion (Fc fusion)
# chain: DTQEKEVRAMVGSDVELSCACPEGSRFDLNDVYVYWQTSESKTVVTYHIPQHSSLEYVDSRYRNRALMSPAGMLRGDFSLRLFNVTPQDEQKFHCLVLSRSLGFQEVLSVEVTLHVAANFSVPVVSAPHSPSQDELTFTCTSINGYPRPNVYWINKTDNSLLDQALQNDTVSLNMRGLYDVVSVLRIARTPSVNIGCCIENGGGGSGGGGSEPKSSDKTHTCPPCPAPEAEGAPSVFLFPPKPKDTLMISRTPEVTCVVVDVSHEDPEVKFNWYVDGVEVHNAKTKPREEQYNSTYRVVSVLTVLHQDWLNGKEYKCKVSNKALPAPIEKTISKAKGQPREPQVYTLPPSREEMTKNQVSLTCLVKGFYPSDIAVEWESNGQPENNYKTTPPVLDSDGSFFLYSKLTVDKSRWQQGNVFSCSVMHEALHNHYTQKSLSLSPG
# B5: ICOSL (N52D) (Fc fusion, not shown: a dimerising Fc or GST; small tags and cut ends)
# chain: DTQEKEVRAMVGSDVELSCACPEGSRFDLNDVYVYWQTSESKTVVTYHIPQDSSLENVDSRYRNRALMSPAGMLRGDFSLRLFNVTPQDEQKFHCLVLSQSLGFQEVLSVEVTLHVAANFSV
# notes: also called ICOSL H79; parental ICOSL only protein
# B6: ICOSL (N52H/N57Y/Q100R) (Fc fusion, not shown: a dimerising Fc or GST; small tags and cut ends)
# chain: B5 chain with D52H, N57Y, Q100R
# notes: also called ICOSL H238; parental ICOSL only protein
# B7: ICOSL (N52L/N57H/Q100R) (Fc fusion, not shown: a dimerising Fc or GST; small tags and cut ends)
# chain: B5 chain with D52L, N57H, Q100R
# notes: also called ICOSL H3447; parental ICOSL only protein
# B8: variant ICOSL ECD-Fc F120S/Y152H/N201S (Fc fusion)
# chain: DTQEKEVRAMVGSDVELSCACPEGSRFDLNDVYVYWQTSESKTVVTYHIPQNSSLENVDSRYRNRALMSPAGMLRGDFSLRLFNVTPQDEQKFHCLVLSQSLGFQEVLSVEVTLHVAANSSVPVVSAPHSPSQDELTFTCTSINGYPRPNVHWINKTDNSLLDQALQNDTVFLNMRGLYDVVSVLRIARTPSVNIGCCIESVLLQQNLTVGSQTGNDIGERDKITENPVSTGEKNAATAAAEPKSSDKTHTCPPCPAPELLGGPSVFLFPPKPKDTLMISRTPEVTCVVVDVSHEDPEVKFNWYVDGVEVHNAKTKPCEEQYGSTYRCVSVLTVLHQDWLNGKEYKCKVSNKALPAPIEKTISKAKGQPREPQVYTLPPSREEMTKNQVSLTCLVKGFYPSDIAVEWESNGQPENNYKTTPPVLDSDGSFFLYSKLTVDKSRWQQGNVFSCSVMHEALHNHYTQKSLSLSPGK
# B9: variant ICOSL ECD-Fc S54F/V193A (Fc fusion)
# chain: B8 chain with S54F, S120F, H152Y, V193A, S201N
# Target: T3, human CD28 (human, UniProt P10747 19-220)
# T3 construct: whole, on cells
# Assay: flow cytometry, transfected cells; protein from CHO
MFI [MFI],MFI ratio to WT [fold],Molecule
84600,49,B1
68600,39.7,B2
110000,63.9,B3

# Target: T1, human ICOS
# Assay: as above
MFI [MFI],MFI ratio to WT [fold],Molecule
118000,1.2,B1
133000,1.3,B2
136000,1.4,B3

# Target: T4, human CTLA-4 (human, UniProt P16410 36-223)
# T4 construct: whole, on cells
# Assay: as above
# T4 sequence (P16410 36-223): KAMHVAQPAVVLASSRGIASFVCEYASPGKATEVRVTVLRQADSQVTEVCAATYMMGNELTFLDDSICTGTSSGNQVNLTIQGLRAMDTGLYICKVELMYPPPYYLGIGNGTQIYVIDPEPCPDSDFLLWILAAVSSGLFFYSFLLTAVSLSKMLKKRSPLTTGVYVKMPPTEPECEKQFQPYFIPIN
MFI [MFI],MFI ratio to WT [fold],Molecule
205000,27,B1
377000,49.8,B2
323000,42.6,B3

# Target: T3, human CD28
# Assay: as above
# Remark: another data set of the same source
MFI [MFI],MFI ratio to WT [fold],Molecule
13000,3.7,B4
17300,4.9,B1
12700,3.6,B2
14400,4.1,B3

# Target: T1, human ICOS
# Assay: as above
# Remark: another data set of the same source
MFI [MFI],MFI ratio to WT [fold],Molecule
8080,0.7,B4
8670,0.7,B1
7610,0.7,B2
12600,1.1,B3

# Target: T4, human CTLA-4
# Assay: as above
# Remark: another data set of the same source
MFI [MFI],MFI ratio to WT [fold],Molecule
9040,0.7,B4
9040,0.7,B1
9000,0.7,B2
8710,0.7,B3

# Target: T2, human ICOS, full length, expressed on …
# Assay: flow cytometry on CHO cells transduced for surface expression of full-length human ICOS; Fc protein 32 pM to 100 nM, PE anti-human IgG, MFI
row,EC50 (read off the curve) [nM],Molecule
1,~0.8,B5
2,~0.5,B6
3,~0.4,B7

# Target: human PD-L1 (human) (UniProt Q9NZQ7)
# Assay: flow cytometry, PD-L1-transfected cells
# Chain of human PD-L1 (human) (Q9NZQ7 19-290): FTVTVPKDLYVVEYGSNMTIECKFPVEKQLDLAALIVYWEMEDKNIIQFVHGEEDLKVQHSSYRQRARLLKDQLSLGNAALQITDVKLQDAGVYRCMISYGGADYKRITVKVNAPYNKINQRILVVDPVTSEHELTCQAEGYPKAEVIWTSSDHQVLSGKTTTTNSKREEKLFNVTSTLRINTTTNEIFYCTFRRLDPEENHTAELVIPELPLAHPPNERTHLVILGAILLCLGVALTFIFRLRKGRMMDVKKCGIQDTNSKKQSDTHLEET
row,MFI [MFI],Molecule
1,1230,stack CD80 WT IgV / ICOSL WT IgV / Fc (Fc fusion)
2,3000,stack ICOSL WT IgV / CD80 WT IgV / Fc (Fc fusion)

# Target: human CD28, full-length, expressed on transfected cells (human) (UniProt P10747)
# Assay: flow cytometry, transfected cells
row,MFI [MFI],Molecule
1,6340,stacked Fc fusion: Domain 1 NKp30 WT / Domain 2 ICOSL WT / Fc
2,7920,stacked Fc fusion: Domain 1 ICOSL WT / Domain 2 NKp30 WT / Fc

# Target: T3, human CD28
# Assay: flow cytometry, CD28-transfected cells
parental ratio of MFI,MFI,Molecule
0.31 fold vs WT,,ICOSL Y47H/N52S/V107A/F120S ECD-Fc (Fc fusion)
1.92 fold vs WT and 0.93 fold vs WT,8610 MFI and 4160 MFI,ICOSL F27S/N52H/N57Y/V110N ECD-Fc (Fc fusion)
0.93 fold vs WT,,ICOSL N52H/N57Y/Q100R/V110D/V116A/L161M/F172S/S192G/C198R ECD-Fc (Fc fusion)
0.49 fold vs WT,,ICOSL T43A/N52H/N57Y/L74Q/D89G/V110D/F172S ECD-Fc (Fc fusion)

# Target: T3, human CD28
# Assay: flow cytometry, transfected cells; protein from 293
MFI [MFI],MFI ratio to WT [fold],Molecule
12000,3.4,B4
16600,4.7,B1
14700,4.1,B2
12900,3.6,B3

# Target: T1, human ICOS
# Assay: as above
MFI [MFI],MFI ratio to WT [fold],Molecule
7600,0.7,B4
9380,0.8,B1
6890,0.6,B2
16000,1.4,B3

# Target: T4, human CTLA-4
# Assay: as above
MFI [MFI],MFI ratio to WT [fold],Molecule
9670,0.8,B4
9670,0.8,B1
8840,0.7,B2
8180,0.7,B3

# Target: human CD28, full length, expressed on cells (human) (UniProt P10747)
# Assay: flow cytometry, ECD-Fc on CD28-transfected HEK293 cells
CD28 MFI parental ratio (ratio to WT ICOSL),CD28 MFI [MFI],Molecule
0.89,,B8
0.87,16,B9
